Experimental data published in article PMC6100724, “Proteome‐wide analysis of phospho‐regulated PDZ domain interactions” (Molecular Systems Biology, 2018).

B1: RPS6KA2 S730E: Flag‐tagged full-length RPS6KA2 phosphomimetic mutant expressed in HEK293 cells (protein)
chain: MDLSMKKFAVRRFFSVYLRRKSRSKSSSLSRLEEEGVVKEIDISHHVKEGFEKADPSQFELLKVLGQGSYGKVFLVRKVKGSDAGQLYAMKVLKKATLKVRDRVRSKMERDILAEVNHPFIVKLHYAFQTEGKLYLILDFLRGGDLFTRLSKEVMFTEEDVKFYLAELALALDHLHSLGIIYRDLKPENILLDEEGHIKITDFGLSKEAIDHDKRAYSFCGTIEYMAPEVVNRRGHTQSADWWSFGVLMFEMLTGSLPFQGKDRKETMALILKAKLGMPQFLSGEAQSLLRALFKRNPCNRLGAGIDGVEEIKRHPFFVTIDWNTLYRKEIKPPFKPAVGRPEDTFHFDPEFTARTPTDSPGVPPSANAHHLFRGFSFVASSLIQEPSQQDLHKVPVHPIVQQLHGNNIHFTDGYEIKEDIGVGSYSVCKRCVHKATDTEYAVKIIDKSKRDPSEEIEILLRYGQHPNIITLKDVYDDGKFVYLVMELMRGGELLDRILRQRYFSEREASDVLCTITKTMDYLHSQGVVHRDLKPSNILYRDESGSPESIRVCDFGFAKQLRAGNGLLMTPCYTANFVAPEVLKRQGYDAACDIWSLGILLYTMLAGFTPFANGPDDTPEEILARIGSGKYALSGGNWDSISDAAKDVVSKMLHVDPHQRLTAMQVLKHPWVVNREYLSPNQLSRQDVHLVKGAMAATYFALNRTPQAPRLEPVLSSNLAQRRGMKRLTETRL
modifications: left off: 3xFlag, end not stated, kept
notes: Flag‐tagged full-length RPS6KA2 phosphomimetic mutant expressed in HEK293 cells
B2: Flag‐tagged RPS6KA1: Flag‐tagged full-length wild-type RPS6KA1 expressed in HEK293 cells (protein, UniProt Q15418 1-735, looked up)
chain: MPLAQLKEPWPLMELVPLDPENGQTSGEEAGLQPSKDEGVLKEISITHHVKAGSEKADPSHFELLKVLGQGSFGKVFLVRKVTRPDSGHLYAMKVLKKATLKVRDRVRTKMERDILADVNHPFVVKLHYAFQTEGKLYLILDFLRGGDLFTRLSKEVMFTEEDVKFYLAELALGLDHLHSLGIIYRDLKPENILLDEEGHIKLTDFGLSKEAIDHEKKAYSFCGTVEYMAPEVVNRQGHSHSADWWSYGVLMFEMLTGSLPFQGKDRKETMTLILKAKLGMPQFLSTEAQSLLRALFKRNPANRLGSGPDGAEEIKRHVFYSTIDWNKLYRREIKPPFKPAVAQPDDTFYFDTEFTSRTPKDSPGIPPSAGAHQLFRGFSFVATGLMEDDGKPRAPQAPLHSVVQQLHGKNLVFSDGYVVKETIGVGSYSECKRCVHKATNMEYAVKVIDKSKRDPSEEIEILLRYGQHPNIITLKDVYDDGKHVYLVTELMRGGELLDKILRQKFFSEREASFVLHTIGKTVEYLHSQGVVHRDLKPSNILYVDESGNPECLRICDFGFAKQLRAENGLLMTPCYTANFVAPEVLKRQGYDEGCDIWSLGILLYTMLAGYTPFANGPSDTPEEILTRIGSGKFTLSGGNWNTVSETAKDLVSKMLHVDPHQRLTAKQVLQHPWVTQKDKLPQSQLSHQDLQLVKGAMAATYSALNSSKPTPQLKPIESSILAQRRVRKLPSTTL
modifications: full-length Flag tag
notes: Flag‐tagged full-length wild-type RPS6KA1 expressed in HEK293 cells

Key:
GST‐tagged Scribble PDZ1 = experiment: GST-pulldown from HEK293 lysates with GST-tagged Scribble PDZ1; format: binding, human; details: Flag‐tagged full-length protein over-expressed in HEK293 cells; anti‐Flag detection
Excerpt: (§1) pDONR223‐RPS6KA2 (Johannessen et al, 2010) was a gift from William Hahn & David Root (Addgene plasmid # 23530). The gene was PCR‐amplified introducing HindIII and EcoRI restriction sites along with the C‐terminal phosphomimetic (S730E) or phosphoinhibiting (S730A) mutations, or the PDZbm deletion (T731‐L733). pKH3‐human RSK1 was a gift from John Blenis (Addgene plasmid # 13841; Richards et al, 2001). The gene was PCR‐amplified introducing HindIII and EcoRI restriction sites, and a and PDZbm deletion (T733‐L735) was generated. The genes (wild type and mutants) were cloned into 3xFlag CMV‐10 vector and subjected to Sanger sequencing. […]
(§2) The plasmids encoding 3xFlag RPS6KA2 wild type and mutants thereof, 3xFlag RPS6KA1 and mutants thereof, and GFP‐tagged full‐length human Scribble (Navarro et al, 2005) were Midipreped using PureLink HiPure Plasmid Midiprep Kit (Invitrogen). […] The membranes were immunoblotted with anti‐Flag (ab1162; Abcam), anti‐GFP (ab6556; Abcam), and anti‐actin (ab1801; Abcam) primary antibodies followed by HRP‐conjugated anti rabbit secondary antibody (Life technologies) and detected with Amersham ECL Western Blotting Detection Reagent (GE Healthcare), and exposed to high‐performance chemiluminescence film (Amersham Hyperfilm ECL; GE Healthcare) for 30–180 s and developed and fixed using GBX developer and fixer (Carestream Dental).

[1] = system: GFP‐tagged full‐length Scribble; experiment: Co-immunoprecipitation in HEK293 cells; format: binding, human; details: transient expression in HEK293 cells; anti‐Flag beads; anti‐Flag and anti‐GFP detection
Excerpt: as §1, §2

| Molecule | GST‐pulldown with GST‐tagged Scribble PDZ1 (GST‐tagged Scribble PDZ1) | co‐IP with GFP‐tagged full‐length Scribble [1] |
| --- | --- | --- |
| B1 | confirmed an interaction | strong co‐IP |
| B2 | interaction was further confirmed | – |
